Reference: the Immune Epitope Database (IEDB)

Key:
HLA-A*01:01 [1] = assay: IEDB peptide-MHC binding, purified MHC/competitive/radioactivity; filed as Kd, often an IC50 or EC50 that approximates it; ≥ and ≤ were set here for values at or beyond the usual limits of such assays
HLA-A*24:02 = assay: IEDB peptide-MHC binding, purified MHC/competitive/radioactivity; ≥ and ≤ were set here for values at or beyond the usual limits of such assays; settings: source organism: Homo sapiens
HLA-A*01:01 [2] = assay: as above; settings: source organism: Homo sapiens
HLA-A*03:01 = assay: as above; settings: source organism: Homo sapiens
HLA-A*11:01 = assay: as above; settings: source organism: Homo sapiens

IC50 (HLA-A*01:01 [2]) | IC50 (HLA-A*03:01) | IC50 (HLA-A*11:01) | Sequence | further results
0.6 nM | – | – | DSDGSFFLY | –
– | 42 nM | 15.1 nM | ASFDKAKLK | –
– | 128 nM | 6.94 nM | SVLNLVIVK | –
– | 155 nM | 31 nM | RTQNVLGEK | –

Continued, sequence first:

Sequence | IC50 (HLA-A*01:01 [2]) | IC50 (HLA-A*03:01) | IC50 (HLA-A*11:01) | further results
NRKLLDIA | – | – | – | Kd (HLA-A*01:01 [1]; source organism: Bos taurus): ≥ 50 µM
YYEEQHPEL | – | – | – | IC50 (HLA-A*24:02): 100 nM
ATDFKFAMY | 0.74 nM | – | – | –
YLDDPDLKY | 2.8 nM | – | – | –
STDHIPILY | 1.7 nM | – | – | –
AYVHMVTHF | – | – | – | IC50 (HLA-A*24:02): 23 nM
KVVNPLFEK | – | 85 nM | 8.1 nM | –
KYPENFFLL | – | – | – | IC50 (HLA-A*24:02): 4.8 nM
DAKIRIFDL | – | – | – | Kd (HLA-A*01:01 [1]; source organism: Homo sapiens): ≥ 50 µM
